In patent publication WO2016038310A1:
“And” between values parts separate entries of the source, which are not always exact repeats. Equal values may be shown once.

Key:
[1] = molecular target: les FSH ovine et humaine (ovine and human FSH); experiment: ELISA saturation binding, Kd estimated with GraphPad Prism
[2] = molecular target: les eCG et hCG (equine and human chorionic gonadotropins); experiment: as above

Kd [1]: 3.12 µM and 4.62 µM
B1: scFv A8 (scFv)
scFv: QVQLQQSGGGLVQPGGSRKLSCAASGFTFSDFGTHWIRQAPEKGLEWVAYISSGSSTRYYADTVKGRFTISRDDPKNTLFLQMTSLRSEDTAMYYCARSYDGYHVPSFAYWGQGTLVTVSAGGGGSGGGGSGGGGSDIQMTQTPLSLSVSLGDQASISCRSSQNIVHSNGNTYLEWYLQKPGQSPKLLIYRVSNRFSGIPDRFSGSSSGTDFTLKISRVEAEDLGVYYCFQGSHVPLTFGAGTKLELKHHHHHH
Kd [2]: 5.78 µM and 22.2 µM
